Test results reported in patent publication US20060063709A1.

Biological target: NF-kB from mouse cells (nuclear extracts of TPA-stimulated 70Z/3 pre-B cells; also nuclear extracts of the mouse B cell line WEHI 231; cytosolic precursor of 70Z/3) (mouse)

DNA binding activity of NF-kB in EMSA (inhibitor assay): > 90% | reactivation of IkB-inactivated NF-kB DNA binding activity by DOC (EMSA): 66%
Substance: IkB (protein inhibitor of NF-kB) prepared from cytosol of unstimulated mouse 70Z/3 pre-B cells
